Source: the RNAGym collection of RNA variant scans (doi:10.7554/elife.90254)

B1: LINE1-full (parent)
chain: UACGUAGGUGGUUUUCCCCUGAUAGUGCUAAGGGGGCCUGGAAGUUUGGACUGGGCAGAGCUCAACACAGCGUGGCAAAGUGGCUGUGGCUAGACUGCCUCUCUGGAUUCCUCGUCACUCAGCAGGGCAUCUCUGAGAGAAAUGCC

Variants of: B1
Experiment: self-cleavage, relative activity (ratio to wild type); higher = more cleavage; in vitro, sequencing; the parent is a self-cleaving ribozyme

| Variant | self-cleavage |
| --- | --- |
| G35U G74A | 1.22 |
| A24G U46G | 1.28 |
| U104C A141C | 1.73 |
| A22G A43U | 0.88 |
| G126A | 1.31 |
| A129C U130A | 1.47 |
| A42G U102A | 1.38 |
| U29A A141G | 1.15 |
| C3G A141G | 0.66 |
| U9C U23C | 1.68 |
| G36C U62C | 0.05 |
| C16U U119A | 1.17 |
| A43G A57U | 0.21 |
| G8U C56U | 0.28 |
| U20C A50U | 1.32 |
| C19U U29C | 1.37 |
| G83A U85C | 0.09 |
| C99U A107G | 0.83 |
| A2G U52A | 1.11 |
| U9C U96A | 0.15 |
| A67G A121U | 0.51 |
| A78G U119C | 1.55 |
| A50U U104C | 1.03 |
| U47A A121C | 1.49 |

| Variant | self-cleavage |
| --- | --- |
| A2G U14C | 0.93 |
| G54U A92G | 0.08 |
| C19U C123U | 1.58 |
| A94G G125C | 0.57 |
| U13C G54A | 0.62 |
| C19A U62A | 0.05 |
| U130C | 1.52 |
| G49A U81A | 1.95 |
| G48U A117G | 1.13 |
| U13C G53C | 2.02 |
| A77C C128U | 1.67 |
| G74A A121U | 1.07 |
| A22G A64U | 0.41 |
| U102A U130A | 1.28 |
| C84A | 0.1 |
| U108G G122C | 0 |
| G33U | 1.27 |
| U45A A59C | 1.01 |
| U13G A129G | 1.46 |
| U12G C98U | 0.41 |
| U20C G86A | 0.11 |
| A64C C103A | 0.29 |
| C63A U108C | 0.08 |
| C38A | 1.28 |

| Variant | self-cleavage |
| --- | --- |
| U85C C113U | 0.1 |
| U15C A50G | 1.11 |
| U9C U14G | 2.09 |
| C3U A31U | 0.37 |
| C98U U134C | 0.3 |
| U26C A30G | 1.05 |
| U12C U109C | 1.48 |
| U13G C113U | 1.11 |
| A24U U73C | 1.79 |
| C19U U87A | 0.09 |
| A42U A43G | 1.51 |
| G72C A94G | 0.18 |
| U26C C37U | 0.77 |
| A43G G70U | 0.15 |
| U13A G40A | 1.19 |
| A67U A140U | 0.08 |
| G82U A141G | 1.54 |
| C18A A69C | 0.13 |
| U14A U130C | 0.83 |
| G32A U100A | 0.74 |
| G25C U104A | 1.91 |
| U5A A22G | 0.73 |
| A57G C101U | 1.13 |
| A57G A140U | 1.05 |

| Variant | self-cleavage |
| --- | --- |
| U1C C63U | 0.24 |
| G41C U104G | 1.58 |
| U100A A124G | 1.02 |
| G122U G125C | 2.14 |
| U23A A24G | 0.85 |
| C101U U115C | 1.49 |
| A22G C76G | 2.86 |
| G114U A141G | 1.86 |
| C56U A138G | 0.31 |
| A64G A140U | 0.3 |
| A22U A142U | 1.48 |
| U20G U73G | 0.49 |
| U23C U102A | 1.28 |
| U15A C113U | 0.44 |
| G21A A59U | 0.57 |
| C19G A43G | 0.31 |
| A24C U73C | 1.84 |
| A43G A79G | 0.97 |
| U14A A43G | 0.43 |
| U15A G32A | 0.66 |
| A92G G126A | 0.13 |
| U85C U115A | 0.19 |
| A22G U132C | 1.11 |
| G25U A42G | 1.04 |

| Variant | self-cleavage |
| --- | --- |
| U62A A94G | 0.04 |
| U13A A142G | 1.2 |
| U29C A64C | 0.61 |
| U134A A136U | 1.27 |
| U87A U130C | 0.08 |
| U12C A117U | 1.28 |
| U14C U115C | 1.31 |
| U29C G48A | 0.88 |
| G36U A43U | 1.24 |
| A50G A65C | 0.1 |
| U23A A94G | 0.47 |
| U52A A59G | 0.03 |
| C37U A67G | 0.22 |
| U47G U134C | 0 |
| G58U U87C | 0.03 |
| U130C C145U | 1.46 |
| U14A A24G | 0.96 |
| G21C U47A | 0.91 |
| A30G U91C | 0.65 |
| U115G C145U | 1.1 |
| G11A A64U | 0.3 |
| U45A U96C | 0.13 |
| A50G A141U | 1.54 |
| A124G A138G | 1.36 |

| Variant | self-cleavage |
| --- | --- |
| A78G U134C | 1.49 |
| A57G U102A | 0.82 |
| G32C U104G | 1.26 |
| A79G A121G | 1.21 |
| U45C A69G | 0.31 |
| U39C C118A | 1.33 |
| A67U C71U | 0.02 |
| U13A A107G | 1.11 |
| U62C G93A | 0.06 |
| C118U A138U | 0.2 |
| U47C A121C | 1.05 |
| U109C U134A | 0.22 |
| U12G G97U | 0.07 |
| A30U A117G | 2.32 |
| U13G A92G | 0 |
| A2G C118G | 1.04 |
| A2C A65U | 0.17 |
| U13C U102A | 1.73 |
| G8C A129G | 1.31 |
| U15C A59G | 0.1 |
| U9C A107U | 1.59 |
| G33A A140G | 1.29 |
| U46A G75A | 0.9 |
| A6U A59G | 0.11 |

| Variant | self-cleavage |
| --- | --- |
| C3U U14A | 0.24 |
| U12A U104A | 1.19 |
| U12G U29C | 1.02 |
| U112A A141G | 1.43 |
| A64C U130C | 0 |
| C19U A43G | 0.62 |
| C17U U23C | 0.68 |
| G60A C111G | 0.02 |
| G33A A67G | 0.63 |
| A43G G93A | 0.1 |
| A43U C131A | 1.64 |
| A31U U109C | 1.17 |
| U81C C133A | 0.9 |
| A42G G72A | 1.11 |
| U81C U115C | 1.39 |
| A24G U104C | 2.26 |
| U45C U100A | 0.58 |
| A6G U100C | 0.87 |
| U12G U115G | 0 |
| U23A U62C | 0 |
| C95A C146U | 0.08 |
| A24G U45C | 1.12 |
| U14G C38G | 1.12 |
